Results: paper PMC6687723

Key:
[1] = molecular target: Hsp70 (SBD), residues 394-540 (human) (UniProt P0DMV8); assay: ITC; AR protein (100-200 µM) in the syringe titrated into 10-20 µM chaperone in the cell; 25 °C; 25 mM HEPES, 5 mM MgCl2, 10 mM KCl pH 7.5; one or two-site binding model; no nucleotides
[2] = molecular target: human Hsp40 (DNAJA2), full length (human) (UniProt O60884); assay: as above
[3] = molecular target: Hsp70SBD (HSPA1A), truncated form, residues 394-509 (human) (UniProt P0DMV8); assay: fluorescence polarisation; competition: 2 µM Hsp70SBD and 25 nM FAM-LVEALY with varying concentrations of AR protein, 30 min at room temperature; 100 mM Tris, 20 mM KCl, 6 mM MgCl2 pH 7.4; no nucleotides
[4] = molecular target: androgen receptor N-terminal domain construct NTD_(1-155) (human) (UniProt P10275); assay: NMR titration; 1H,15N-HSQC of 33 µM 15N-labelled NTD construct with 16.5 or 33 µM (0.5 or 1 molar equivalents) unlabelled Hsp70 or Hsp40; 5 °C; 20 mM phosphate pH 7.4, 1 mM TCEP, 10% D2O; no added nucleotides

Kd [1]	Kd [2]	stoichiometry N [2]	IC50 [3]	I/I0 of NTD (1-155) signals at 1 molar equivalent [4]	Substance
5 µM	3.3 µM	0.49	1.7 µM	–	androgen receptor N-terminal domain construct NTD_(1-155) (from UniProt P10275 1-155) (domain or fragment)
–	–	–	–	0.3	human Hsp40 (DNAJA2), full length (from UniProt O60884 1-412) (natural protein)
–	–	–	–	0.3	human Hsp70 (HSPA1A), full length (from UniProt P0DMV8 1-641) (natural protein)
